Article PMC8141814 (Frontiers in Molecular Biosciences, 2021)

What was measured:
[1] = molecular target: the molecule itself; experiment: SEC; SEC profile of cell-free synthesized ORF14 in DDM detergent micelles
SEC = molecular target: the molecule itself; experiment: SEC

Protein	stoichiometry N [1]	stoichiometry N (SEC)
ORF14 (ORF9c) protein, full-length (natural protein, also called OFR14) MLQSCYNFLKEQHCQKASTQKGAEAAVKPLLVPHHVVATVQEIQLQAAVGELLLLEWLAMAVMLLLLCCCLTD	~9	–
nsp9, full-length (natural protein, also called fl nsp9) NNELSPVALRQMSCAAGTTQTACTDDNALAYYNTTKGGRFVLALLSDLQDLKWARFPKSDGTGTIYTELEPPCRFVTDTPKGPKVKYLYFIKGLNNLNRGMVLGSLAATVRLQ	–	2
